Results from US9382311.

Target: JR-CSF gp120 N276A (HIV-1) (UniProt P20871)
Test: cell-based or functional assay

Work on VRC01 (antibody) yielded an increase in neutralization potency of 4 fold.
